Measured values: a protein production outcome set (Wang et al. 2014)

Assay: label from the status in PepcDB records

Q: For “MRTLIILLLCTNTSFAIAQISPKAVEKNNQSVKTAGFFNDSDSLNKAIHLSDEAIALEPSYKLAYANKIKYLMALGQKEKALQTMLQMEKFSPDDPYYILGKGMMLEENAKKSLAMDAYKQAASLFKKRLKEKPTEADLMNYVFVLFLRDNKNYSLDEIEKEYPQIFSPAIRQHTKKLIDELSNKREDVIHEMLGGK”, which protein production is on record?
A: failed

Q: Which protein production does the source give for “MRRRVAAALVAAVLAAPALAQQPEPFEPEGYRTDNYRAPVPATLAGARVLTTAEAEAIWRDKSGAFIDVMPRAPKPKNLPEGTVWRDAPRRNIPGSLWLPDTGYGNLPPAMDDYLQRGLAQASRGDKAALLVIYCLADCWMSWNAARRALAYGYSNIAWYPDGSDGWERAALPTDEGQPEPRPDQ” here?
A: failed

Q: Which protein production does the source give for “MSTKDKYDILNLCFYEKEAIMANVLFLVGSLRDGSFNHQMAKKAEAFLTDKAQVSYIDLAKIPLFNQDIETPILPEIAELRAQVDAADAIWIFSPVYNYAIPGIVKNALDWLSRSLDLSNPKGPSILQDKITTVSAVANSGHDHLFKDFQHLLPFIRTQIAGEFTGSTINPEAWGTGVLELSDETLTKLEQQVADLLAAIQ” here?
A: failed

Q: With “MKSLYRSRMANHSKHGRPFTLSLPNRSQCVKIVATFAAVGLLATGGIISRSFYTSSTQAEPTTRVTAYSATDAEASRGNAREALGGDTAYVTVKINGKSRVVPGTNFTNVKSVLEAGNITLEPEDTVSPSLTTKVDEKTVITVSRAGASVEVSDSSIAFNVVKKETSSLPKGQEKVETEGEEGVMESTNLVTRSGDTVISSNMISSYVKKAPVDKVVLVGTGSTSTSSSSSSSSSTASVGTTVPAGEMQQWAHDYLISNGYTEADFTATVYIISHESGWSVSATNPSSGAYGLPQALPGSKMVSAGADWATNYQTQLKWFWGYCASRYGSIQGAYSYWLAHKCY” as the sequence, how does the protein production read?
A: failed

Q: With “MFGAELVIVLLAIYLGARLGGIGIGFAGGLGVLVLTLIFQIKPGAIPFDVIEIIMAVIAAIAAMQVAGGMDYLVSLAERMLRRHPKYITFLAPLVTWFMTVLAGTGHTAFSTLPVITEVAKEQGIRPSRPLSIAVVASQIAITASPISAAVVFFAGILEPLGVSYLTLLAICIPVTLLAVMLTAIVCNFLGCELKDDPVYQERLAKGEVRLRGSQVFELQPHAKRSVLLFLIGIVAVMFYATAISDTVGLIKNPVLPRNEAIVVFMLTIATLISITCKIDTGEVLNASTFKSGMSACVCVLGVAWLGDTFVKAHISDIQAVAGDLLHNYPWLLAVVLFFAATLLYSQAATTKALMPAALLLGVSPLTAIASFAAVSALFVLPTYPTLLAAVEMDDTGSTRIGKYVFNHAFLIPGVIAITLCVILGFIFGGIML” as the sequence, how does the protein production read?
A: failed

Q: For “MLSANQIKFLRSLRERKYRLREQAFAVEGPKLVGEMLPFYRCRMLVGTAAMLRAVSTPHDAEVVELPESFDFKRISTQTTPQPLMAVFDLPAEPEPVVEGLTLLLDGVQDPGNVGTILRTADWFGIRHVWLGTGSADVFSPKVVQASMGALARVQPTPLKNTVDTLAYFRRQGIPVYGAFLDGQSLYEAPLPNFTEPAILVLGSEGRGISPEVAAEITDRLTIPASGLSVKGHTESLNVAIATAILCSEWRRRS”, which protein production is on record?
A: not failed

Q: Which protein production does the source give for “MPDLGLTDAESLGHCLFDTGFGVCGIAWRAFEGKDEAPVVTLFLLPEATAAGTAAAMARRCGGSPTVPPPAIAEVIEKVRRHFRGDLQDFSRVRVEPDGAGPFARAVYSAARDVPAGQIRTYGELARALNRPAAARAVGQALGRNPVPLIIPCHRILGAGGKLGGFSAHGGVATKARMLRLEGVAV” here?
A: failed

Q: For “ELQRRKLLQENILNSIPLPIHIKDVEDDFRYVFCNEESMRMFGTHEGETVCSVLDSEQAERMQKTDLEVFTTGKPYFGVERIILKDGRSYDTIVRKNIIYDGTKRLLLNIRWD”, which protein production is on record?
A: failed

Q: For “MGRNFLAILYFCFLFLGFLSCSNVKSMSLMAIGNYEYVRGNYQNAISNYYNLVEDEKYSAWGYYNLGVVYYSLGEYESSLRIFSYAKKTNDIFLNFNVNYNEGVIYYNQGLYHKAEVAFKEALKINPGSYNAKYNLELAIIKKRAVRDSLNSLSVEKGKNFVESNENFLRYIENLERVVWLRKIDENLAVPKEDW”, which protein production is on record?
A: failed

Q: For “SSPVPFGPEGRLEDKLHKPKATQTEVKPSVRFNLRTSKDPEHEGCYLSVGHSQPLEDCSFNMTAKTFFIIHGWTMSGIFENWLHKLVSALHTREKDANVVVVDWLPLAHQLYTDAVNNTRVVGHSIARMLDWLQEKDDFSLGNVHLIGYSLGAHVAGYAGNFVKGTVGRITGLDPAGPMFEGADIHKRLSPDDADFVDVLHTYTRSFGLSIGIQMPVGHIDIYPNGGDFQPGCGLNDVLGSIAYGTITEVVKCEHERAVHLFVDSLVNQDKPSFAFQCTDSNRFKKGICLSCRKNRCNSIGYNAKKMRNKRNSKMYLKTRAGMPFRVYHYQMKIHVFSYKNMGEIEPTFYVTLYGTNADSQTLPLEIVERIEQNATNTFLVYTEEDLGDLLKIQLTWEGASQSWYNLWKEFRSYLSQPRNPGRELNIRRIRVKSGETQRKLTFCTEDPENTSISPGQELWFRKCRDGWRMKNETSPTVELP”, which protein production is on record?
A: not failed

Q: With “MKFNEFLNNLSNYEPGKDIEVIAKEYGVKEVIKLASNENPFGTPPKAIECLRQNANKAHLYPDDSMIELKSTLAQKYKVQNENIIIGAGSDQVIEFAIHSKLNSKNAFLQAGVTFAMYEIYAKQCGAKCYKTQSITHNLDEFKKLYETHKDEIKLIFLCLPNNPLGECLDASEATEFIKGVNEDCLVVIDAAYNEFASFKDSKKHLEPCELIKEFDNVLYLGTFSKLYGLGGLRIGYGIANANIISAFYKLRAPFNVSNLALKAAVAAMDDDEFTEKTLENNFSQMELYKEFAKKHNIKIIDSYTNFITYFFDEKNSTDLSEKLLKKGIIIRNLKSYGLNAIRITIGTSYENEKFFTEFDKILR” as the sequence, how does the protein production read?
A: not failed

Q: Which protein production does the source give for “VQSKNPVLIEGFPGIGLVGNIASQHIIEELNMEYIGSIDSRYFPSIAVLYEGLINMPVRIYENVEHNLIIVISDIPISHSVSYDVSNALVDWAEAINVKEIASIAGIAIMDGGHKVFGAATTPEMLDKIRDKVEIFQMGTISGISGSVMAECLLRGIPAISLLGATRTQNPDPRAASSVIGVLNELYGLSISTDRLIEQAERIEIELQRLAEDVQATERKGEVKKEFPMYG” here?
A: failed

Q: With “MKAALLDQVARVGKALANGRRLQILDLLAQGERAVEAIATATGMNLTTASANLQALKSGGLVEARREGTRQYYRIAGEDVARLFALVQVVADEHLEHHHHHH” as the sequence, how does the protein production read?
A: not failed

Q: For “RMPTRRWAPGTQCITKCEHTRPKPGELAFRKGDVVTILEACENKSWYRVKHHTSGQEGLLAAGALRER”, which protein production is on record?
A: not failed

Q: For “MKFVSIEKDEILIGNMAKLYCKVFEKTNFNEMIERMNRHIEYTGFKGIVAINDENEVVGFTYGYRSMEGQYYNQLMREALHLEQVDEWLQDCFEFVELAVHPQYQNEGLGTKLHNELLEGIPNRTSVLTTQINNEKARSLYERLDWVNVLEPFHPSKNDVPYVIMGKALKTKVN”, which protein production is on record?
A: failed

Q: Which protein production does the source give for “MNLHQTVEHEAAAAFAAAGIAGSPVVLQPTKNAEHGDFQINGVMGAAKKAKQNPRELAQKVADALAGNAVIESAEVAGPGFINLRLRHEFLAQNIHAALNDARF” here?
A: not failed

Q: Which protein production does the source give for “MTYGEAYLEGWKNIFNYEGVSNRFEFWSFMIGSGVICLLPLLCWWLAVTINNDYGVFIFFALPVSFILTLIFAVPAIALAVRRMHDIGYSGWWVTIAVLIPVTGVILLILCCLPSKSQDQA” here?
A: failed

Q: Which protein production does the source give for “MLSKSKTTKALLYSTAALSLFAASHVHADETSHWTARSVDQIKADISVNDNQQTYTVQYGDTLGSIVEAMGIDMNVLANIKEITNIDLIFPGTVLTTTYNADNQAVSVKVETPSSETSDTPVVAESNLTTNEVTVNGQSVVASDLSAPVETVSLTATQAPAKEESTQVVSEVTEAIASASDTPAYADTEQPVADAIDHVTSSAEETLAEEEAPATETSAQAETTEVAATSEAASEAASEVPAEQLAAASEAPESSEAPAEQPAAAPESSEAPAEQPAATSEAASEAPASVVPVATSEAVSEAPAVSEVPAEQLAAASEAPESSEVPAEQPAAAPESSEAPAEQPAATSEAAPATSEAPAEQLAATSEAASTPNTYPVGQCTWGAKSLAPWAGNNWGNAKDWIASAQAAGHSVGTTPVAGAIAVWPNDGGGYGHVAYVTSASGVNSIQVMESNYAGNMLIGNYRGTFDPTSSAHGGSVYYIYP” here?
A: failed

Q: For “MTRRGAQKASPSRAPGETALSTLYVTHPSAVEHVVPTGHPERPARMQAVERALEDERFAALVRCHAPRAEASVAELVHPASYVETIVAASPDEGFFQIDGDTLMSPGSLNTCLHAIGGSNHAVDAVMKGECANAFVAMRPPGHHAERDRAMGFCLFNHAAIAVRHAQKAFGATRVALVDFDVHHGNGSQDIFWADKTVMYASTHQMPLFPGSGATGERGDHDTIVNAPLKAFDGSELFREAFEARILPRLDAFAPDLIVISAGFDAHKLDPLANIQLDEADFGWATRRLMEVADRHAGGRVVSILEGGYSLDGLARSVAAHMDALMGR”, which protein production is on record?
A: failed
